Consider nine molecules from patent US12630600B2 (MEDIMMUNE LIMITED, priority 2022, dated 2026).

Starred links: 1 amine or outer side, 2 acyl side, 3 side chain; linkers in the order of their positions; H or OH if unused. Non-standard residues stand in square brackets, D forms with d. Groups on a side chain read outwards from the residue. No end group written: not given here. *: point of attachment. C20 diacid = O=C(O)CCCCCCCCCCCCCCCCCCC(=O)*; C18 diacid = O=C(O)CCCCCCCCCCCCCCCCC(=O)*; γGlu = O=C(O)[C@H](CCC(=O)[*:2])N[*:1]; αMeF = C[C@](N)(Cc1ccccc1)C(=O)O; AEEA = NCCOCCOCC(=O)O; Aib = CC(C)(N)C(=O)O

To fix the notation:
B1: Peptide 443 (peptide)
peptide: H[Aib]QGTFTSDVSK[αMeF]LDKK([AEEA-AEEA-γGlu-C18 diacid])RARDFVRWLL[Aib]E-NH2
modifications: N-terminus assumed
SMILES: CC(C)C[C@H](NC(=O)[C@H](Cc1c[nH]c2ccccc12)NC(=O)[C@H](CCCNC(=N)N)NC(=O)[C@@H](NC(=O)[C@H](Cc1ccccc1)NC(=O)[C@H](CC(=O)O)NC(=O)[C@H](CCCNC(=N)N)NC(=O)[C@H](C)NC(=O)[C@H](CCCNC(=N)N)NC(=O)[C@H](CCCCNC(=O)COCCOCCNC(=O)COCCOCCNC(=O)CC[C@H](NC(=O)CCCCCCCCCCCCCCCCC(=O)O)C(=O)O)NC(=O)[C@H](CCCCN)NC(=O)[C@H](CC(=O)O)NC(=O)[C@H](CC(C)C)NC(=O)[C@](C)(Cc1ccccc1)NC(=O)[C@H](CCCCN)NC(=O)[C@H](CO)NC(=O)[C@@H](NC(=O)[C@H](CC(=O)O)NC(=O)[C@H](CO)NC(=O)[C@@H](NC(=O)[C@H](Cc1ccccc1)NC(=O)[C@@H](NC(=O)CNC(=O)[C@H](CCC(N)=O)NC(=O)C(C)(C)NC(=O)[C@@H](N)Cc1c[nH]cn1)[C@@H](C)O)[C@@H](C)O)C(C)C)C(C)C)C(=O)N[C@@H](CC(C)C)C(=O)NC(C)(C)C(=O)N[C@@H](CCC(=O)O)C(N)=O
B2: Peptide 442 (peptide)
peptide: H[Aib]QGTFTSDVSK[αMeF]LDKK([AEEA-AEEA-γGlu-C18 diacid])RAQDFVRWLLE[Aib]G-NH2
modifications: N-terminus assumed
SMILES: CC(C)C[C@H](NC(=O)[C@H](Cc1c[nH]c2ccccc12)NC(=O)[C@H](CCCNC(=N)N)NC(=O)[C@@H](NC(=O)[C@H](Cc1ccccc1)NC(=O)[C@H](CC(=O)O)NC(=O)[C@H](CCC(N)=O)NC(=O)[C@H](C)NC(=O)[C@H](CCCNC(=N)N)NC(=O)[C@H](CCCCNC(=O)COCCOCCNC(=O)COCCOCCNC(=O)CC[C@H](NC(=O)CCCCCCCCCCCCCCCCC(=O)O)C(=O)O)NC(=O)[C@H](CCCCN)NC(=O)[C@H](CC(=O)O)NC(=O)[C@H](CC(C)C)NC(=O)[C@](C)(Cc1ccccc1)NC(=O)[C@H](CCCCN)NC(=O)[C@H](CO)NC(=O)[C@@H](NC(=O)[C@H](CC(=O)O)NC(=O)[C@H](CO)NC(=O)[C@@H](NC(=O)[C@H](Cc1ccccc1)NC(=O)[C@@H](NC(=O)CNC(=O)[C@H](CCC(N)=O)NC(=O)C(C)(C)NC(=O)[C@@H](N)Cc1c[nH]cn1)[C@@H](C)O)[C@@H](C)O)C(C)C)C(C)C)C(=O)N[C@@H](CC(C)C)C(=O)N[C@@H](CCC(=O)O)C(=O)NC(C)(C)C(=O)NCC(N)=O
B3: Peptide 450 (peptide)
peptide: H[Aib]QGTFTSDVSK[αMeF]LDKK([AEEA-AEEA-γGlu-γGlu-C18 diacid])RAQDFVRWLLE[Aib]G-OH
modifications: N-terminus assumed
SMILES: CC(C)C[C@H](NC(=O)[C@H](Cc1c[nH]c2ccccc12)NC(=O)[C@H](CCCNC(=N)N)NC(=O)[C@@H](NC(=O)[C@H](Cc1ccccc1)NC(=O)[C@H](CC(=O)O)NC(=O)[C@H](CCC(N)=O)NC(=O)[C@H](C)NC(=O)[C@H](CCCNC(=N)N)NC(=O)[C@H](CCCCNC(=O)COCCOCCNC(=O)COCCOCCNC(=O)CC[C@H](NC(=O)CC[C@H](NC(=O)CCCCCCCCCCCCCCCCC(=O)O)C(=O)O)C(=O)O)NC(=O)[C@H](CCCCN)NC(=O)[C@H](CC(=O)O)NC(=O)[C@H](CC(C)C)NC(=O)[C@](C)(Cc1ccccc1)NC(=O)[C@H](CCCCN)NC(=O)[C@H](CO)NC(=O)[C@@H](NC(=O)[C@H](CC(=O)O)NC(=O)[C@H](CO)NC(=O)[C@@H](NC(=O)[C@H](Cc1ccccc1)NC(=O)[C@@H](NC(=O)CNC(=O)[C@H](CCC(N)=O)NC(=O)C(C)(C)NC(=O)[C@@H](N)Cc1c[nH]cn1)[C@@H](C)O)[C@@H](C)O)C(C)C)C(C)C)C(=O)N[C@@H](CC(C)C)C(=O)N[C@@H](CCC(=O)O)C(=O)NC(C)(C)C(=O)NCC(=O)O
B4: Peptide 449 (peptide)
peptide: H[Aib]QGTFTSDVSK[αMeF]LDTK([AEEA-AEEA-γGlu-γGlu-C20 diacid])RARDFVQWLLE[Aib]G-OH
modifications: N-terminus assumed
SMILES: CC(C)C[C@H](NC(=O)[C@H](Cc1c[nH]c2ccccc12)NC(=O)[C@H](CCC(N)=O)NC(=O)[C@@H](NC(=O)[C@H](Cc1ccccc1)NC(=O)[C@H](CC(=O)O)NC(=O)[C@H](CCCNC(=N)N)NC(=O)[C@H](C)NC(=O)[C@H](CCCNC(=N)N)NC(=O)[C@H](CCCCNC(=O)COCCOCCNC(=O)COCCOCCNC(=O)CC[C@H](NC(=O)CC[C@H](NC(=O)CCCCCCCCCCCCCCCCCCC(=O)O)C(=O)O)C(=O)O)NC(=O)[C@@H](NC(=O)[C@H](CC(=O)O)NC(=O)[C@H](CC(C)C)NC(=O)[C@](C)(Cc1ccccc1)NC(=O)[C@H](CCCCN)NC(=O)[C@H](CO)NC(=O)[C@@H](NC(=O)[C@H](CC(=O)O)NC(=O)[C@H](CO)NC(=O)[C@@H](NC(=O)[C@H](Cc1ccccc1)NC(=O)[C@@H](NC(=O)CNC(=O)[C@H](CCC(N)=O)NC(=O)C(C)(C)NC(=O)[C@@H](N)Cc1c[nH]cn1)[C@@H](C)O)[C@@H](C)O)C(C)C)[C@@H](C)O)C(C)C)C(=O)N[C@@H](CC(C)C)C(=O)N[C@@H](CCC(=O)O)C(=O)NC(C)(C)C(=O)NCC(=O)O
B5: Peptide 446 (peptide)
peptide: H[Aib]QGTFTSDVSK[αMeF]LDRK([AEEA-AEEA-γGlu-γGlu-C18 diacid])RAQDFVRWLV[Aib]E-NH2
modifications: N-terminus assumed
SMILES: CC(C)C[C@H](NC(=O)[C@H](Cc1c[nH]c2ccccc12)NC(=O)[C@H](CCCNC(=N)N)NC(=O)[C@@H](NC(=O)[C@H](Cc1ccccc1)NC(=O)[C@H](CC(=O)O)NC(=O)[C@H](CCC(N)=O)NC(=O)[C@H](C)NC(=O)[C@H](CCCNC(=N)N)NC(=O)[C@H](CCCCNC(=O)COCCOCCNC(=O)COCCOCCNC(=O)CC[C@H](NC(=O)CC[C@H](NC(=O)CCCCCCCCCCCCCCCCC(=O)O)C(=O)O)C(=O)O)NC(=O)[C@H](CCCNC(=N)N)NC(=O)[C@H](CC(=O)O)NC(=O)[C@H](CC(C)C)NC(=O)[C@](C)(Cc1ccccc1)NC(=O)[C@H](CCCCN)NC(=O)[C@H](CO)NC(=O)[C@@H](NC(=O)[C@H](CC(=O)O)NC(=O)[C@H](CO)NC(=O)[C@@H](NC(=O)[C@H](Cc1ccccc1)NC(=O)[C@@H](NC(=O)CNC(=O)[C@H](CCC(N)=O)NC(=O)C(C)(C)NC(=O)[C@@H](N)Cc1c[nH]cn1)[C@@H](C)O)[C@@H](C)O)C(C)C)C(C)C)C(=O)N[C@H](C(=O)NC(C)(C)C(=O)N[C@@H](CCC(=O)O)C(N)=O)C(C)C
B6: Peptide 448 (peptide)
peptide: H[Aib]QGTFTSDVSK[αMeF]LDKK([AEEA-AEEA-γGlu-γGlu-C18 diacid])RARDFVRWLL[Aib]E-OH
modifications: N-terminus assumed
SMILES: CC(C)C[C@H](NC(=O)[C@H](Cc1c[nH]c2ccccc12)NC(=O)[C@H](CCCNC(=N)N)NC(=O)[C@@H](NC(=O)[C@H](Cc1ccccc1)NC(=O)[C@H](CC(=O)O)NC(=O)[C@H](CCCNC(=N)N)NC(=O)[C@H](C)NC(=O)[C@H](CCCNC(=N)N)NC(=O)[C@H](CCCCNC(=O)COCCOCCNC(=O)COCCOCCNC(=O)CC[C@H](NC(=O)CC[C@H](NC(=O)CCCCCCCCCCCCCCCCC(=O)O)C(=O)O)C(=O)O)NC(=O)[C@H](CCCCN)NC(=O)[C@H](CC(=O)O)NC(=O)[C@H](CC(C)C)NC(=O)[C@](C)(Cc1ccccc1)NC(=O)[C@H](CCCCN)NC(=O)[C@H](CO)NC(=O)[C@@H](NC(=O)[C@H](CC(=O)O)NC(=O)[C@H](CO)NC(=O)[C@@H](NC(=O)[C@H](Cc1ccccc1)NC(=O)[C@@H](NC(=O)CNC(=O)[C@H](CCC(N)=O)NC(=O)C(C)(C)NC(=O)[C@@H](N)Cc1c[nH]cn1)[C@@H](C)O)[C@@H](C)O)C(C)C)C(C)C)C(=O)N[C@@H](CC(C)C)C(=O)NC(C)(C)C(=O)N[C@@H](CCC(=O)O)C(=O)O
B7: Peptide 447 (peptide)
peptide: H[Aib]QGTFTSDVSK[αMeF]LDRK([AEEA-AEEA-γGlu-γGlu-C20 diacid])RAQDFVRWLV[Aib]E-NH2
modifications: N-terminus assumed
SMILES: CC(C)C[C@H](NC(=O)[C@H](Cc1c[nH]c2ccccc12)NC(=O)[C@H](CCCNC(=N)N)NC(=O)[C@@H](NC(=O)[C@H](Cc1ccccc1)NC(=O)[C@H](CC(=O)O)NC(=O)[C@H](CCC(N)=O)NC(=O)[C@H](C)NC(=O)[C@H](CCCNC(=N)N)NC(=O)[C@H](CCCCNC(=O)COCCOCCNC(=O)COCCOCCNC(=O)CC[C@H](NC(=O)CC[C@H](NC(=O)CCCCCCCCCCCCCCCCCCC(=O)O)C(=O)O)C(=O)O)NC(=O)[C@H](CCCNC(=N)N)NC(=O)[C@H](CC(=O)O)NC(=O)[C@H](CC(C)C)NC(=O)[C@](C)(Cc1ccccc1)NC(=O)[C@H](CCCCN)NC(=O)[C@H](CO)NC(=O)[C@@H](NC(=O)[C@H](CC(=O)O)NC(=O)[C@H](CO)NC(=O)[C@@H](NC(=O)[C@H](Cc1ccccc1)NC(=O)[C@@H](NC(=O)CNC(=O)[C@H](CCC(N)=O)NC(=O)C(C)(C)NC(=O)[C@@H](N)Cc1c[nH]cn1)[C@@H](C)O)[C@@H](C)O)C(C)C)C(C)C)C(=O)N[C@H](C(=O)NC(C)(C)C(=O)N[C@@H](CCC(=O)O)C(N)=O)C(C)C

For the first test, the target named is human GLP-1 receptor (human, UniProt P43220). Put plainly: cell-based or functional assay.
For the molecule H[Aib]QGTFTSDVSK[αMeF]LETK([AEEA-AEEA-γGlu-C18 diacid])RARDFVQWLLE[Aib]G-OH (not fully specified) [Peptide 444], the “cAMP production EC50” value amounted to 0.247 nM.

In the case of H[Aib]QGTFTSDVSK[αMeF]LETK([AEEA-AEEA-γGlu-C18 diacid])RARDFVQWLLE[Aib]G-OH [Peptide 445], the “cAMP production EC50” value was 0.033 nM.

Consider B1, for which the “cAMP production EC50” value came out at 0.0206 nM.

B2: the “cAMP production EC50” value turned out to be 0.0191 nM.

With B3, the “cAMP production EC50” value stood at 0.0573 nM.

As to B4, the “cAMP production EC50” value was determined as 0.207 nM.

On to B5, for which the “cAMP production EC50” value is 0.0329 nM.

In the case of B6, the “cAMP production EC50” value is 0.0531 nM.

Take B7: the “cAMP production EC50” value is 0.17 nM.

The target of a further test is human glucagon receptor (human, UniProt P47871). In words: cell-based or functional assay.
In the case of H[Aib]QGTFTSDVSK[αMeF]LETK([AEEA-AEEA-γGlu-C18 diacid])RARDFVQWLLE[Aib]G-OH (not fully specified) [Peptide 444], the “cAMP production EC50” value is 1.76 nM.

In the case of H[Aib]QGTFTSDVSK[αMeF]LETK([AEEA-AEEA-γGlu-C18 diacid])RARDFVQWLLE[Aib]G-OH [Peptide 445], the “cAMP production EC50” value amounted to 0.684 nM.

In the case of B1, the “cAMP production EC50” value was 0.0224 nM.

With B2, the “cAMP production EC50” value came out at 0.0358 nM.

B3: the “cAMP production EC50” value is 0.0578 nM.

In the case of B4, the “cAMP production EC50” value is 0.242 nM.

B5: the “cAMP production EC50” value turned out to be 0.366 nM.

On to B6, for which the “cAMP production EC50” value was found to be 0.029 nM.

For B7, the “cAMP production EC50” value worked out at 0.667 nM.
